From patent US20110293511A1, “SPECIFIC BINDING PROTEINS AND USES THEREOF” (priority 2009, published 2011) come the findings set out here.

Data set [1] has as its target T1, denatured soluble domain of the EGFR (sEGFR) (Homo sapiens, UniProt P00533).
T1 construct: sEGFR is the recombinant extracellular domain (amino acids 1-621) of the wild-type EGFR); host or cells: CHO cells
The experiment in a line: competition ELISA with biotinylated mAb806. The format is binding. To be noted: after unlabeled blocking antibody. The method, then:
Briefly, the denatured soluble domain of the EGFR (sEGFR) was coated on to ELISA plates. The unlabeled 124 or 1133 antibodies were then added across the plate in increasing concentrations.
A general note: An ELISA detects its analyte on a solid surface through an enzyme-linked reagent.

The test system of a further data set is xenograft U87MGΔEGFR. The experiment in a line: immunohistochemical analysis on xenograft tumors. Format: binding, human.
Another data set concerns xenograft A431. The experiment in a line: immunohistochemical analysis on xenograft tumors. Format: binding, human. From the text:
The murine fibroblast line NR6ΔEGFR was used as immunogen. Mouse hybridomas were generated by immunizing BALB/c mice five times subcutaneously at 2- to 3-week intervals, with 5×10^5-2×10^6 cells in adjuvant. Complete Freund's adjuvant was used for the first injection. Thereafter, incomplete Freund's adjuvant (Difco™, Voigt Global Distribution, Lawrence, Kans.) was used. Spleen cells from immunized mice were fused with mouse myeloma cell line SP2/0 (Shulman et al. (1978) Nature 276:269-270). Supernatants of newly generated clones were screened in hemadsorption assays for reactivity with cell line NR6, NR6wtEGFR, and NR6ΔEGFR and then analyzed by hemadsorption assays with human glioblastoma cell lines U87MG, U87MGwtEGFR, and U87ΔEGFR. Selected hybridoma supernatants were subsequently tested by western blotting and further analyzed by immunohistochemistry. Newly generated mAbs showing the expected reactivity pattern were purified.
Bound antibody was detected using the Dako Envision+ HRP detection system as per manufacturer's instructions. Sections were finally rinsed with water, counterstained with hematoxylin and mounted.
On the technique in general: Xenograft models place foreign cells or tissue in a host animal.

A further data set concerns A431 cells. Nature of the data set: ADCC assay. The format is cell-based, human. Particulars: 1 μg/mL; representative experiment.
The next data set concerns A431 xenografts. Nature of the data set: s.c. xenograft therapy study. The format is in vivo, nude mice. To be noted: established; 6×1 mg IP. The method, then: Tumor cells (3×10^6) in […] of PBS were inoculated subcutaneously into both flanks of 4-6 week old female nude mice (Animal Research Centre, Western Australia, Australia). […] Treatment was continued for a total of 6 doses, 3 times per week for 2 weeks. In the established model, treatment was started when tumors had reached a mean volume of 65±6.42 mm^3 (U87MG.Δ2-7), 84±9.07 mm3 (U87MG), 73±7.5 mm^3 (U87MG.wtEGFR) or 201±19.09 mm^3 (A431 tumors). Tumor volume in mm^3 was determined using the formula […], where length was the longest axis and width the measurement at right angles to the length (Clark et al. (2000) Therapeutic efficacy of anti-Lewis (y) humanized 3S 193 radioimmunotherapy in a breast cancer model: enhanced activity when combined with Taxol chemotherapy. Clin. Cancer Res. 6, 3621-3628). Data was expressed as mean tumor volume±S.E. for each treatment group. Statistical analysis was performed at given time points using Student's t-test. Animals were euthanized when the xenografts reached an approximate volume of 1.5 cm^3 and the tumors excised for histological examination. This research project was approved by the Animal Ethics Committee of the Austin and Repatriation Medical Centre.
AG1478 (4-(3-Chloroanilino)-6,7-dimethoxyquinazoline) is a potent and selective inhibitor of the EGFR kinase versus HER2-neu and platelet-derived growth factor receptor kinase (Calbiochem Cat. No. 658552). […] The results are illustrated in FIG. 12. […] 400 μg AG1478 was administered at 0, 2, 4, 7, 9, and 11 days post xenograft.
With respect to “(iv),” different groups of mice received either 0.5 mg/injection of each mAb, or 0.25 mg/injection of each mAb.
Finally, the fourth group of mice, which had been inoculated with A431 cells, received injections as in groups I and III, at 8, 10, 12 and 14 days after inoculation. At the start, the average tumor size was 71 mm^3.
To establish xenografts, mice were injected subcutaneously into the right and left inguinal mammary line with 1×10^6 A431 adenocarcinoma cells or 1×10^6 U87MG.de2-7 glioma cells in 100 μl of PBS. Tumor volume (TV) was calculated by the formula […] where length was the longest axis and width the measurement at right angles to length. […] Therapy was administered on days 6, 8, 11, 13, 15 and 18 for A431, and days 4, 6, 8, 11, 13 and 15 for the U87MG.de2-7 cell lines respectively. Mean±SEM tumor volumes until termination of the experiments due to ethical considerations of tumor burden are presented in FIG. 91 for the A431 xenograft until day 25, and in FIG. 92 for U87MG.de2-7 xenografts until day 31.

Method for A431 cells: PBMCs were isolated from healthy volunteer donor blood. Heparinized whole blood was fractionated by density centrifugation on Ficoll-Hypaque (ICN Biomedical Inc., Ohio, USA). PBMC fractions was collected and washed three times with RPMI^+ 1640 supplemented with 100 U/ml penicillin and 100 μg/ml streptomycin, 2 mM L-glutamine, containing 5% heat-inactivated FCS.
CDC and ADCC assays were performed by a modification of a previously published method (Nelson, D. L. et al. (1991) In: J. E. Colignan, A. M. Kruisbeek, D. D. Margulies, E. M. Shevach, and W. Strober (eds.), Current Protocols in Immunology, pp. 7.27.1. New York: Greene Publishing Wiley Interscience). Briefly, 5×10^6 target U87MG.de2-7 and A431 cells were labeled with 50 μCi^51Cr (Geneworks, Adelaide, Australia) per 1×10^6 cells and incubated for 2 hr at 37° C. The cells were then washed three time with PBS (0.05M, pH 7.4) and a fourth wash with culture medium. […]
In the first assay, labelled target cells were plated with the effector cells in 96-well “U” bottom microplates (NUNC, Roskilde, Denmark) at effector/target (E:T) cell ratios of 50:1. […] In both assays, micotitre plates were incubated at 37° C. for 4 hours, then 50 μl supernatant was harvested from each well and released ^51Cr was determined by gamma counting (Cobra II automated Gamma Counter, Canberra Packard, Melbourne, Australia). […]

B1: mAb1133: murine IgG2a monoclonal antibody, clone 1133; VH SEQ ID NO:32, VL SEQ ID NO:37 (antibody, listed as Mus musculus, V domains shown)
VH: DVQLQGSGPSLVKPSQSLSLTCTVTGYSITSDYAWNWIRQFPGNKLEWMGYISYSGNTRYNPSLRSRISITRDTSKNQFFLQLNSVTTEDTATYYCATAGRGFPYWGQGTLVTVSA
VL: DILMTQSPSSMSVSLGDTVNITCHSSQDINSNIGWLQQKPGKSFKGLIYHGTNLDDGVPSRFSGSGSGADYSLTISSLESEDFADYYCVQYGQFPWTFGGGTKLEIKR
B1: the “Binding of biotin-labeled 806” value in data set [1] is reported as “None”. For the same molecule, the Immunohistochemical staining result with xenograft U87MGΔEGFR is “pos”; with xenograft A431 it was “pos. (predominantly basal”.

B2: hu806: humanized (veneered) 806 antibody, human IgG1; SEQ ID NO:42 and SEQ ID NO:47 (antibody, V domains shown)
VH: MDWTWRILFLVAAATGVHSQVQLQESGPGLVKPSQTLSLTCTVSGYSISSDFAWNWIRQPPGKGLEWMGYISYSGNTRYQPSLKSRITISRDTSKNQFFLKLNSVTAADTATYYCVTAGRGFPYWGQGTLVTVSS
VL: MDWTWRILFLVAAATGVHSDIQMTQSPSSMSVSVGDRVTITCHSSQDINSNIGWLQQKPGKSFKGLIYHGTNLDDGVPSRFSGSGSGTDYTLTISSLQPEDFATYYCVQYAQFPWTFGGGTKLEIKR
Regarding B2, the ADCC cytotoxicity in the data set on A431 cells is reported as 30%. Moreover, the “xenograft growth versus PBS vehicle control” value in the data set on A431 xenografts is recorded as “marked reduction in A431 xenograft growth”.
